Where a chain is given by its changes, count along the chain named. Names may count otherwise.
T1: human FcγRIIa(R) (human, UniProt P12318 36-217)
T1 construct: also called FcgRIIaR; FcγRIIa type R
T1 chain: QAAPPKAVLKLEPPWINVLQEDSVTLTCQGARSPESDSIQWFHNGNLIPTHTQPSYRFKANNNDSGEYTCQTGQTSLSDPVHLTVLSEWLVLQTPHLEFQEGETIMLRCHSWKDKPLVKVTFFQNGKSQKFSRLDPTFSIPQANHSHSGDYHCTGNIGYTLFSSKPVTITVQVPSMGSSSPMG

T2: human FcγRIIa(H) (human, UniProt P12318 36-217)
T2 construct: also called FcgRIIaH; FcγRIIa type H
T2 sequence: T1 chain with R133H

T3: human FcγRIIb (human, UniProt P31994 43-217, limits assumed)
T3 construct: also called FcgRIIb
T3 sequence: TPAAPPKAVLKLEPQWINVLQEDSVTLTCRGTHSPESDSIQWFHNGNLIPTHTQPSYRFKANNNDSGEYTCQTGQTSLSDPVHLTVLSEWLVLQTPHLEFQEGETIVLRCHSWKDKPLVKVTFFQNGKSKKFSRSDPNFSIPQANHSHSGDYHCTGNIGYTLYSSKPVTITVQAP

B1: GpH7-B3 variant V266H/GpL16-k0 (antibody, human IgG1)
heavy: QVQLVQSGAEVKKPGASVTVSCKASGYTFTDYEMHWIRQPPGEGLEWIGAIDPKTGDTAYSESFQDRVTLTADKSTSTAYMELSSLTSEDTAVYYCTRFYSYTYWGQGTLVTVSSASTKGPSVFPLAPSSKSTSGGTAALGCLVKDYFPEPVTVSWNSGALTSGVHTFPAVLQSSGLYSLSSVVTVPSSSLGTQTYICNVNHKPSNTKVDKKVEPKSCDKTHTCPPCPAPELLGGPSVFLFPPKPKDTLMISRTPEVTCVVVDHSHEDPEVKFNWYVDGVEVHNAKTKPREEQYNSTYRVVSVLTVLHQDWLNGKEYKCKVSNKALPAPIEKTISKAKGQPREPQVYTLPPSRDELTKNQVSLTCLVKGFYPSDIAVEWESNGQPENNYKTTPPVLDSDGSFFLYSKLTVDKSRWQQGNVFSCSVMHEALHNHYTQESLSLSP
light: DIVMTQSPLSLPVTPGEPASISCQASESLVHSNRNTYLHWYLQKPGQSPQLLIYKVSNRFSGVPDRFSGSGSGTDFTLKISRVEAEDVGVYYCSQNTHVPPTFGQGTKVEIE
notes: copies: 2 + 2
B2: GpH7-B3 variant P238W/GpL16-k0 (antibody, human IgG1)
heavy: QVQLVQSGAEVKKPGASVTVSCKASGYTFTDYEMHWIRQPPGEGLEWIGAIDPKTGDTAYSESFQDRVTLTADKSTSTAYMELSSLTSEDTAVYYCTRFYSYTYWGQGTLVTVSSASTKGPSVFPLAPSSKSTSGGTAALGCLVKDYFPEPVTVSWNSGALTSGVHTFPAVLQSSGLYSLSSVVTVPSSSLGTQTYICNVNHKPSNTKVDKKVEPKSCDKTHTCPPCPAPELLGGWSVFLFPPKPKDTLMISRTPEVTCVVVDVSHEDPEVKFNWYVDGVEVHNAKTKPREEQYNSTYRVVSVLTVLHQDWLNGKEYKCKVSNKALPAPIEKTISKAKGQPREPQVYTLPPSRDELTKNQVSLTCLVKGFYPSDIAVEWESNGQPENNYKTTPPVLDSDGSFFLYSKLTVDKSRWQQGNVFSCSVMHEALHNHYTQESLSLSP
light: B1 light
notes: copies: 2 + 2
B3: GpH7-B3 variant S267F/GpL16-k0 (antibody, human IgG1)
heavy: not shown
light: B1 light
notes: copies: 2 + 2
B4: GpH7-B3 variant S239K/GpL16-k0 (antibody, human IgG1)
heavy: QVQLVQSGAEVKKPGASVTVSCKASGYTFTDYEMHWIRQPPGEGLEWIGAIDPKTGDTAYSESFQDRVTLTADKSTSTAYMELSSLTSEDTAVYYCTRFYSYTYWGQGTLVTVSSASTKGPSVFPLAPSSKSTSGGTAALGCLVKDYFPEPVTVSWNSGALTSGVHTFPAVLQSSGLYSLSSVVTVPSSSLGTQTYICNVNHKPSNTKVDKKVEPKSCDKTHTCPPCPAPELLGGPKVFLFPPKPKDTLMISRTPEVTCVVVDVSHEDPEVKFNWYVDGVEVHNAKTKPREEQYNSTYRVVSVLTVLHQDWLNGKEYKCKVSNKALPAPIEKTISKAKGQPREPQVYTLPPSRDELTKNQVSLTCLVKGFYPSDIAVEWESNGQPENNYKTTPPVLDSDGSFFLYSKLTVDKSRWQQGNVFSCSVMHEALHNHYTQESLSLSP
light: B1 light
notes: copies: 2 + 2
B5: GpH7-B3 variant V266R/GpL16-k0 (antibody, human IgG1)
heavy: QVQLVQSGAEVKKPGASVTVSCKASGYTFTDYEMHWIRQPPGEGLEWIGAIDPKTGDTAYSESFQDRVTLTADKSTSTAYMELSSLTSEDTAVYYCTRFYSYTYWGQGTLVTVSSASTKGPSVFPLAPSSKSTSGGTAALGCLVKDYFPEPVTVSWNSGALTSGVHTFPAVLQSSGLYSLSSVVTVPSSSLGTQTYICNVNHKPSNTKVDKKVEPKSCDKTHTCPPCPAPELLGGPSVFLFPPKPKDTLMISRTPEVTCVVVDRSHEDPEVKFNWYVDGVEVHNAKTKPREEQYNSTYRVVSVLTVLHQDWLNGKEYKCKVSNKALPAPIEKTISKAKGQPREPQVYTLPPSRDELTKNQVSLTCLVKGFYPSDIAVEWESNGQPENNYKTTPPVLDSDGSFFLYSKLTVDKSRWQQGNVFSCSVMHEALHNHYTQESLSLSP
light: B1 light
notes: copies: 2 + 2
B6: GpH7-B3 variant V266D/GpL16-k0 (antibody, human IgG1)
heavy: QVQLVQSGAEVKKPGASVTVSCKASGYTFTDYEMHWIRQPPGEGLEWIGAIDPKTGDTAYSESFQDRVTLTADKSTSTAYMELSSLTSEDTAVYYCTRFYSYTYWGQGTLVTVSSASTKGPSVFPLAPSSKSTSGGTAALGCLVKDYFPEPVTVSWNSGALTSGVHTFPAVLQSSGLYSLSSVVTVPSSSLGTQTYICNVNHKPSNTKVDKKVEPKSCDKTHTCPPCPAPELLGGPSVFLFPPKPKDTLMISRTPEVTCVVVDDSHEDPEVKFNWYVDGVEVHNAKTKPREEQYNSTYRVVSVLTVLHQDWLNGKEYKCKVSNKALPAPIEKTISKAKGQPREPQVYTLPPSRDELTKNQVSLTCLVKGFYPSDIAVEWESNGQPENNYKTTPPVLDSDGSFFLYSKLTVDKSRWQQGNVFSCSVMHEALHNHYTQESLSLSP
light: B1 light
notes: copies: 2 + 2
B7: GpH7-B3 variant V266E/GpL16-k0 (antibody, human IgG1)
heavy: not shown
light: B1 light
notes: copies: 2 + 2
B8: GpH7-B3 variant V266K/GpL16-k0 (antibody, human IgG1)
heavy: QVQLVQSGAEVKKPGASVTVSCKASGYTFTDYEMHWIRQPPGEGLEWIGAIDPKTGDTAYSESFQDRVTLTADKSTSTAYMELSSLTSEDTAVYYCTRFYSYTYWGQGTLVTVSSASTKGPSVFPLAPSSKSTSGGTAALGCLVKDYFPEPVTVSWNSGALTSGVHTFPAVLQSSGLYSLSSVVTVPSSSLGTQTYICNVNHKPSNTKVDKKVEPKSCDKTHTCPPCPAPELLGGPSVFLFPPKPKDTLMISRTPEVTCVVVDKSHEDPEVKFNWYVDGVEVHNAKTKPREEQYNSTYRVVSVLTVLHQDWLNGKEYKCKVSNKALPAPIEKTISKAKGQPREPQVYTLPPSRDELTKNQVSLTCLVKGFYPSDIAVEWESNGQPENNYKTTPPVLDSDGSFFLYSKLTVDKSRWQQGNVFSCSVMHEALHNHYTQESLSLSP
light: B1 light
notes: copies: 2 + 2
B9: GpH7-B3 variant S239H/GpL16-k0 (antibody, human IgG1)
heavy: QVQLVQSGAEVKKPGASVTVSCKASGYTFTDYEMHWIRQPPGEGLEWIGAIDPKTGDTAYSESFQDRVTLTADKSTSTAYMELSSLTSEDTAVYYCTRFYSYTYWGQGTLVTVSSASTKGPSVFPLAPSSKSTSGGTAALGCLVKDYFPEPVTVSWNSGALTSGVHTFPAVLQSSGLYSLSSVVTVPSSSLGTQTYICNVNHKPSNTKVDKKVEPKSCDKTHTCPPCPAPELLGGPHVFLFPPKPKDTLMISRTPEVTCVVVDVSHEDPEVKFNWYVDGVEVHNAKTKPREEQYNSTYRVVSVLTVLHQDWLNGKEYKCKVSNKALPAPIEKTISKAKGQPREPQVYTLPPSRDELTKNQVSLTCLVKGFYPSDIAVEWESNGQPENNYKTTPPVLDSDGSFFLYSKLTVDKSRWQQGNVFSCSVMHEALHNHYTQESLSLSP
light: B1 light
notes: copies: 2 + 2
B10: GpH7-B3 variant V266N/GpL16-k0 (antibody, human IgG1)
heavy: not shown
light: B1 light
notes: copies: 2 + 2
B11: GpH7-B3 variant S267K/GpL16-k0 (antibody, human IgG1)
heavy: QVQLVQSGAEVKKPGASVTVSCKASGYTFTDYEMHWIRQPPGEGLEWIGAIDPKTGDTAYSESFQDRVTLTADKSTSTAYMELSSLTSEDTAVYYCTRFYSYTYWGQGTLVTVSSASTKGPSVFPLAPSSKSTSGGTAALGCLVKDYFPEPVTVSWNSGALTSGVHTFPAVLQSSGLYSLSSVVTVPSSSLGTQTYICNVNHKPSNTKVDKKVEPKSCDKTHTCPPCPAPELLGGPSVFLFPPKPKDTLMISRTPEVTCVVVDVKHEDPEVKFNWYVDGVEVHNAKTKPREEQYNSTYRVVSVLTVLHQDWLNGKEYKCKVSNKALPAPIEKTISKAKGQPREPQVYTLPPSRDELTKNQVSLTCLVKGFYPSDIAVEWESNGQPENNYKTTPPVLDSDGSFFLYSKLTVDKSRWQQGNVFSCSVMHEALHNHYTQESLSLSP
light: B1 light
notes: copies: 2 + 2
B12: GpH7-B3 variant V266T/GpL16-k0 (antibody, human IgG1)
heavy: not shown
light: B1 light
notes: copies: 2 + 2
B13: GpH7-B3 variant S267R/GpL16-k0 (antibody, human IgG1)
heavy: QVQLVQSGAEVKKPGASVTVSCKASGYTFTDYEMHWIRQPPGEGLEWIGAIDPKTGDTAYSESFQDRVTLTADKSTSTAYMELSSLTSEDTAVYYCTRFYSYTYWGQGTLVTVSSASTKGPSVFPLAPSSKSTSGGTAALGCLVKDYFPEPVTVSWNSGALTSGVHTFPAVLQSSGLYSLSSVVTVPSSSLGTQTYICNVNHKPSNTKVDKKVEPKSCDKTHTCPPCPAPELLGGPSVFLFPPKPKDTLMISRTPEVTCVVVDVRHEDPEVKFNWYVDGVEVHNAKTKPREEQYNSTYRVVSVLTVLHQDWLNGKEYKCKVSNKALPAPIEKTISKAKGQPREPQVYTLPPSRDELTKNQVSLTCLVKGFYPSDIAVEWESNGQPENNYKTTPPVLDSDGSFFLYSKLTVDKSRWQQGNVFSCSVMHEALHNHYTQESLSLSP
light: B1 light
notes: copies: 2 + 2
B14: GpH7-B3 variant V266P/GpL16-k0 (antibody, human IgG1)
heavy: not shown
light: B1 light
notes: copies: 2 + 2
B15: GpH7-B3 variant V266Q/GpL16-k0 (antibody, human IgG1)
heavy: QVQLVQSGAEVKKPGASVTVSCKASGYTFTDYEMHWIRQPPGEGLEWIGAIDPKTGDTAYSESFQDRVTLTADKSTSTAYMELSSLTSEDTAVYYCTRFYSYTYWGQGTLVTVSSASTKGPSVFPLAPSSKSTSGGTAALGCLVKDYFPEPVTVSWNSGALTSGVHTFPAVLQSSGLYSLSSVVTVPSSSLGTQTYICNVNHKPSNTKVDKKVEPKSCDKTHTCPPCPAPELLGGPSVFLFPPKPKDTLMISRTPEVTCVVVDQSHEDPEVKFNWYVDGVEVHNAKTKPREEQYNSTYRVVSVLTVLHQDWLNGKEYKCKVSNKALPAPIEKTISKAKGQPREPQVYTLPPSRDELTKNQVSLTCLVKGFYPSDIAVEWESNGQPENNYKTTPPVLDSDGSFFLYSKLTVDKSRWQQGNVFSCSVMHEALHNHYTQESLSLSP
light: B1 light
notes: copies: 2 + 2

Target: T4, human FcγRIa (human, UniProt P12314 16-292, limits assumed)
T4 construct: also called FcgRIa; FcγRI (CD64)
Assay: SPR (Biacore);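 also: antibody variants captured on sensor chip, Fcγ receptor flowed over at 25 °C, bound receptor normalized to amount of captured antibody, expressed relative to reference antibody set as 100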
Procedure: (§1) Interaction between each modified antibody and Fcγ receptor prepared in the manner described above was analyzed using the BIACORE™ T100 surface plasmon resonance system (GE Healthcare), BIACORE™ T200 surface plasmon resonance system (GE Healthcare), BIACORE™ A100 surface plasmon resonance system or BIACORE™ 4000 surface plasmon resonance system. HBS-EP+ (GE Healthcare) was used for the running buffer, and measurements were carried out at 25° C. The chips used were chips in which antigen peptides, Protein A (Thermo Scientific), Protein A/G (Thermo Scientific) or Protein L (ACTIGEN® protein (Alltech or BioVision) were immobilized on the Series S Sensor Chip CMS (GE Healthcare) or Series S Sensor Chip CM4 (GE Healthcare) by amine coupling, or chips in which preliminarily biotinylated antigen peptides were allowed to interact and then immobilized on the Series S Sensor Chip SA (certified) (GE Healthcare). The target antibodies were captured on these sensor chips, Fcγ receptor diluted with the running buffer was allowed to interact, followed by measurement of the amount of bound antibody. The amounts bound were compared between antibodies. However, since the amount of Fcγ receptor bound depends on the amount of captured antibody, the values used for comparison were first corrected by dividing the amount of Fcγ receptor bound by the captured amount of each antibody. Through reaction with 10 mM glycine-HCl at pH 1.5, the sensor chips were regenerated by washing off antibody captured on the sensor chips and used repeatedly.
(§2) Binding strength was evaluated according to the following method based on the results of analyzing the interaction with each FcγR. […] That value was then further multiplied by 100, and the resulting value was used as an indicator of relative binding activity to each FcγR.

T4 sequence (P12314 16-292 limits assumed): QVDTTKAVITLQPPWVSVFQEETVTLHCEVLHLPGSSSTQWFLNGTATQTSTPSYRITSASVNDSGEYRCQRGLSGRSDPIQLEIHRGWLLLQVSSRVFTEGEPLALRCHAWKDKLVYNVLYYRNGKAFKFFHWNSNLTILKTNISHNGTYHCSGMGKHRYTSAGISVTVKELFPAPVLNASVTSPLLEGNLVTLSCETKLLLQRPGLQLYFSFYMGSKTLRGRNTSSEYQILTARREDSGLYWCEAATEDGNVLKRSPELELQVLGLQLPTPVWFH

Row | relative binding activity | Binder
1 | 62 % of GpH7-B3/GpL16-k0 | B1
2 | 99 % of GpH7-B3/GpL16-k0 | B2
3 | 91 % of GpH7-B3/GpL16-k0 | B3
4 | 6 % of GpH7-B3/GpL16-k0 | B4
5 | 5 % of GpH7-B3/GpL16-k0 | B5
6 | 67 % of GpH7-B3/GpL16-k0 | B6
7 | 69 % of GpH7-B3/GpL16-k0 | B7
8 | 15 % of GpH7-B3/GpL16-k0 | B8
9 | 64 % of GpH7-B3/GpL16-k0 | B9
10 | 84 % of GpH7-B3/GpL16-k0 | B10
11 | 68 % of GpH7-B3/GpL16-k0 | B11
12 | 89 % of GpH7-B3/GpL16-k0 | B12
13 | 78 % of GpH7-B3/GpL16-k0 | B13
14 | 1 % of GpH7-B3/GpL16-k0 | B14
15 | 88 % of GpH7-B3/GpL16-k0 | B15

Target: T1, human FcγRIIa(R)
Assay: SPR (Biacore);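 also: antibody variants captured on sensor chip, Fcγ receptor flowed over at 25 °C, bound receptor normalized to amount of captured antibody, expressed relative to reference antibody set as 100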
Procedure: as §1, §2

Row | relative binding activity | Binder
16 | 22 % of GpH7-B3/GpL16-k0 | B1
17 | 25 % of GpH7-B3/GpL16-k0 | B2
18 | 13 % of GpH7-B3/GpL16-k0 | B3
19 | 4 % of GpH7-B3/GpL16-k0 | B4
20 | -6 % of GpH7-B3/GpL16-k0 | B5
21 | 3 % of GpH7-B3/GpL16-k0 | B6
22 | -3 % of GpH7-B3/GpL16-k0 | B7
23 | 0 % of GpH7-B3/GpL16-k0 | B8
24 | 38 % of GpH7-B3/GpL16-k0 | B9
25 | 58 % of GpH7-B3/GpL16-k0 | B10
26 | 1 % of GpH7-B3/GpL16-k0 | B11
27 | 66 % of GpH7-B3/GpL16-k0 | B12
28 | -6 % of GpH7-B3/GpL16-k0 | B13
29 | -5 % of GpH7-B3/GpL16-k0 | B14
30 | 47 % of GpH7-B3/GpL16-k0 | B15

Target: T2, human FcγRIIa(H)
Assay: SPR (Biacore);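 also: antibody variants captured on sensor chip, Fcγ receptor flowed over at 25 °C, bound receptor normalized to amount of captured antibody, expressed relative to reference antibody set as 100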
Procedure: as §1, §2

Row | relative binding activity | Binder
31 | 2 % of GpH7-B3/GpL16-k0 | B1
32 | 2 % of GpH7-B3/GpL16-k0 | B2
33 | 1 % of GpH7-B3/GpL16-k0 | B3
34 | 4 % of GpH7-B3/GpL16-k0 | B4
35 | -1 % of GpH7-B3/GpL16-k0 | B5
36 | 2 % of GpH7-B3/GpL16-k0 | B6
37 | 0 % of GpH7-B3/GpL16-k0 | B7
38 | -1 % of GpH7-B3/GpL16-k0 | B8
39 | 19 % of GpH7-B3/GpL16-k0 | B9
40 | 32 % of GpH7-B3/GpL16-k0 | B10
41 | 1 % of GpH7-B3/GpL16-k0 | B11
42 | 18 % of GpH7-B3/GpL16-k0 | B12
43 | -1 % of GpH7-B3/GpL16-k0 | B13
44 | -1 % of GpH7-B3/GpL16-k0 | B14
45 | 11 % of GpH7-B3/GpL16-k0 | B15

Target: T3, human FcγRIIb
Assay: SPR (Biacore);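 also: antibody variants captured on sensor chip, Fcγ receptor flowed over at 25 °C, bound receptor normalized to amount of captured antibody, expressed relative to reference antibody set as 100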
Procedure: as §1, §2

Row | relative binding activity | Binder
46 | 14 % of GpH7-B3/GpL16-k0 | B1
47 | 13 % of GpH7-B3/GpL16-k0 | B2
48 | 18 % of GpH7-B3/GpL16-k0 | B3
49 | 1 % of GpH7-B3/GpL16-k0 | B4
50 | -2 % of GpH7-B3/GpL16-k0 | B5
51 | 2 % of GpH7-B3/GpL16-k0 | B6
52 | 0 % of GpH7-B3/GpL16-k0 | B7
53 | -1 % of GpH7-B3/GpL16-k0 | B8
54 | 24 % of GpH7-B3/GpL16-k0 | B9
55 | 40 % of GpH7-B3/GpL16-k0 | B10
56 | 3 % of GpH7-B3/GpL16-k0 | B11
57 | 52 % of GpH7-B3/GpL16-k0 | B12
58 | 0 % of GpH7-B3/GpL16-k0 | B13
59 | -3 % of GpH7-B3/GpL16-k0 | B14
60 | 34 % of GpH7-B3/GpL16-k0 | B15

Target: T5, human FcγRIIIa(F) (human, UniProt P08637 17-208, limits assumed)
T5 construct: also called FcgRIIIaF; allotype F158
Assay: SPR (Biacore)
Procedure: as §1, §2

T5 sequence (P08637 other isoform, or with tags, fused parts or gaps limits assumed): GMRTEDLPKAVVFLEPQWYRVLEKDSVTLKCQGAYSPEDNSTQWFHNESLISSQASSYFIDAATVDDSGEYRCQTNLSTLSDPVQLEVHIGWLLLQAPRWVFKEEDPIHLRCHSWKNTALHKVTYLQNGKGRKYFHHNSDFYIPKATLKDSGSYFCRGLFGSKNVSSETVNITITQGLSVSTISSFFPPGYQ

Row | relative binding activity | Binder
61 | 0 % of GpH7-B3/GpL16-k0 | B1
62 | -1 % of GpH7-B3/GpL16-k0 | B2
63 | 0 % of GpH7-B3/GpL16-k0 | B3
64 | 0 % of GpH7-B3/GpL16-k0 | B4
65 | -1 % of GpH7-B3/GpL16-k0 | B5
66 | 1 % of GpH7-B3/GpL16-k0 | B6
67 | -1 % of GpH7-B3/GpL16-k0 | B7
68 | -1 % of GpH7-B3/GpL16-k0 | B8
69 | 6 % of GpH7-B3/GpL16-k0 | B9
70 | 5 % of GpH7-B3/GpL16-k0 | B10
71 | 1 % of GpH7-B3/GpL16-k0 | B11
72 | 12 % of GpH7-B3/GpL16-k0 | B12
73 | 0 % of GpH7-B3/GpL16-k0 | B13
74 | -1 % of GpH7-B3/GpL16-k0 | B14
75 | 3 % of GpH7-B3/GpL16-k0 | B15

— patent US20200199241A1 (Chugai, published 2020)
